Experiments:
[1] = biological target: 7β-HSDH from Collinsella aerofaciens DSM 3979 (Collinsella aerofaciens, UniProt A4ECA9); type: biochemical
[2] = biological target: T1, 7β-HSDH from Collinsella aerofaciens DSM 3979 (ATCC 25986), wild type, SEQ ID NO:2 (Collinsella aerofaciens, UniProt A4ECA9); test: Enzyme assay and kinetic analysis of 7β-HSDH (Lineweaver-Burk); type: biochemical; conditions: pH 8, 25° C.
T1 construct: The gene coding for 7β-HSDH was once again amplified from the genomic DNA by PCR; made in house; host or cells: E. coli BL21(DE3), pET-28a(+)
T1 sequence (A4ECA9 1-263): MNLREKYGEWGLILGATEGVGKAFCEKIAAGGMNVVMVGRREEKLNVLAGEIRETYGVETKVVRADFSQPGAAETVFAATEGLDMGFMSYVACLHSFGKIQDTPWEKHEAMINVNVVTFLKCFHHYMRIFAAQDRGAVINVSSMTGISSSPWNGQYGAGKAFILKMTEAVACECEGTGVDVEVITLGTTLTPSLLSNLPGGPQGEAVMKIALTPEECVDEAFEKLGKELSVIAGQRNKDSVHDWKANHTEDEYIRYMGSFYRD

[3] = biological target: T2, 7β-HSDH from Collinsella aerofaciens, wild type (WT), SEQ ID NO:2 (Collinsella aerofaciens, UniProt A4ECA9); test: Kinetic measurements of 7β-HSDH variants (microtiter plate photometer, cell lysate); conditions: 100 μM NADPH, varied DHCA, Michaelis-Menten model with substrate inhibition
T2 sequence (A4ECA9 1-263): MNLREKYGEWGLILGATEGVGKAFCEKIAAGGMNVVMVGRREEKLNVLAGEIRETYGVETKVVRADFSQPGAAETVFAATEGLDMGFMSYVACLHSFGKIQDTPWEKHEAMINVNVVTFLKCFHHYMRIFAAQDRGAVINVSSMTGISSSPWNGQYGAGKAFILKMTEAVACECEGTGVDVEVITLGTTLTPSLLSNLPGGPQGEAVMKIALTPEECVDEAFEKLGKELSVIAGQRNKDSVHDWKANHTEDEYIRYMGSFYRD

7β-HSDH = 7β-HSDH (Collinsella aerofaciens, UniProt A4ECA9); test: Photometric identification of 7β-HSDH activity (production example 1); type: biochemical, Collinsella aerofaciens ATCC 25986; conditions: 0.1 mM test substance, potassium phosphate buffer 50 mM pH 8, in the presence of NADP+ or NADPH
Description: For identification of 7β-HSDH activity, the activity was investigated by a photometric method. In a 1 ml cuvette, enzyme and 0.1 mM of test substance (UDCA) were mixed in potassium phosphate buffer (50 mM, pH8).

[4] = biological target: T3, Collinsella aerofaciens 7β-HSDH mutant G39S (parent SEQ ID NO:2) (Collinsella aerofaciens, UniProt A4ECA9, G39S); test: Kinetic measurements of 7β-HSDH variants (microtiter plate photometer, cell lysate); conditions: 100 μM NADPH, varied DHCA, Michaelis-Menten model with substrate inhibition
T3 sequence (A4ECA9 1-263 G39S): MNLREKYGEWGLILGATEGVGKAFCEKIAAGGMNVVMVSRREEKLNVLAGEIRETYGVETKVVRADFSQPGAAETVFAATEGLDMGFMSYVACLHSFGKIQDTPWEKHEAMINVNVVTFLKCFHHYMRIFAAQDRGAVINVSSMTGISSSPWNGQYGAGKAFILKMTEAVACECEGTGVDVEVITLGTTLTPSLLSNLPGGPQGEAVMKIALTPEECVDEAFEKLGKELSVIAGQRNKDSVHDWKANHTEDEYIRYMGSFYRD
Description: (§7) For each of the mutants and for the wild-type enzyme, kinetic measurements were carried out in the microtiter plate photometer, recording the conversion rates of the enzymes both with constant substrate concentrations with variation of cofactor concentrations and vice versa. To determine the specific enzyme activity, the enzyme concentrations in the cell lysate were determined by densitometry.
(§8) In these measurement series, the reaction rate was determined by linear regression over the first 4 measurements (0 s-18 s).
(§9) The data obtained were evaluated with IGOR Pro. […] For this reason, the classical Michaelis-Menten model was used for evaluating the measurement series at constant substrate concentration and variation of cosubstrate concentration, and the Michaelis-Menten model with substrate inhibition was used for the measurement series with constant cosubstrate concentration and variation of substrate concentration.
(§10) vmax, Km and Ki were determined by nonlinear regression.
(§11) [formula] • v specific enzyme activity, U mg^−1=μmol min^−1 mg^−1 • vmax maximum specific enzyme activity, U mg^−1=μmol min^−1 mg^−1 • cS substrate or cofactor concentration, mol L^−1 • Km semisaturation concentration, mol L^−1 • Ki inhibition constant, mol L^−1

[5] = biological target: T4, Collinsella aerofaciens 7β-HSDH mutant G39A (parent SEQ ID NO:2) (Collinsella aerofaciens, UniProt A4ECA9, G39A); test: as above; conditions: 100 μM NADPH, varied DHCA, Michaelis-Menten model with substrate inhibition
T4 sequence (A4ECA9 1-263 G39A): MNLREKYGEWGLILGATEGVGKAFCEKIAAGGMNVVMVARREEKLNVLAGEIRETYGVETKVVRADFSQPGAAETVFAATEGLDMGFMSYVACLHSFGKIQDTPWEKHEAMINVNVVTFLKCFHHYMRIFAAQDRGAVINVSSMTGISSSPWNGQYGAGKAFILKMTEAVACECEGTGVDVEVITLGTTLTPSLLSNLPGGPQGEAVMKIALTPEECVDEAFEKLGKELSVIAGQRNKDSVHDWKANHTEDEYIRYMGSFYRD
Description: as §7, §8, §9, §10, §11

[6] = substrate: O=CO; test: Kinetic constants of FDH (characterization of the mutant D221G); type: biochemical, Mycobacterium vaccae N10; conditions: 37.0 °C
Description: (§1) The following vector constructs were used • pET22b(+) 7β-HSDH: a pET22b(+) vector into which the 7β-HSDH from Collinsella aerofaciens ATCC 25986 had been cloned via the Nde I and Hind III cleavage sites in the usual way. • pET22b(+) 3α-HSDH: a pET22b(+) vector into which the 3α-HSDH from Comamonas testosteroni had been cloned via the Nde I and EcoR I cleavage sites in the usual way (Oppermann et al., J Biochem, 1996, 241(3): 744-749). • pET21a(+) FDH D221G (cf. FIG. 4a): a pET21a(+) vector into which the formate dehydrogenase from Mycobacterium vaccae N10 had been cloned via the Nde I and EcoR I cleavage sites. With site-directed mutagenesis, the aspartate residue (D) at position 221 (without taking into account methionine in position 1) or position 222 (counting from methionine in position 1; cf. SEQ ID NO: 15, 19, 35) of formate dehydrogenase was replaced with a glycine residue (cf. production example 4, below). Formate dehydrogenase carries, at position 1202 of the nucleotide sequence, a single base deletion, which leads to exchange of the last amino acid valine for an alanine. Simultaneously, this base deletion leads to switching-off of the stop codon and to activation of the His·Tag that was originally outside of the reading frame (cf. SEQ ID NO: 34 and 35). • pET21a(+) 7β-HSDH: a pET21a(+) vector, into which the 7β-HSDH from Collinsella aerofaciens ATCC 25986 had been cloned via the Nde I and Xho I cleavage sites in the usual way • pET21a(+) FDH D221G 7β-HSDH (cf. FIG. 4b) • pET21a(+) FDH 7β-HSDH(G39A) 3α-HSDH (cf. FIG. 8) • pCOLA(mod) 3α-HSDH (cf. FIG. 5) Microorganisms
(§2) The production of an FDH mutant, which can regenerate not only NADH, but also NADHP, will be explained in more detail with the mutant D221G.
(§3) This can lead to repulsion of the phosphate group in the NADP^+, which is also negatively charged. The aspartate is therefore replaced with the small uncharged amino acid residue glycine (G).
(§4) First an LB preculture was inoculated from frozen stored material or with a colony from an agar plate and the preculture was incubated overnight. Incubation was carried out at 37° C. and 250 rpm. The OD of the preculture was determined and the culture was inoculated to an OD of 0.1. On reaching an OD of 0.5-1 (after about 2.5 h), it was induced with IPTG (final concentration 1 mM). The cells were harvested three hours after induction.
(§5) The cells were disrupted mechanically with glass beads. For this, 0.5 mL of glass beads were added to 0.5 mL of cell sample in a 1.5-mL reaction vessel and the reaction vessel was shaken for 3 min at maximum frequency (30 s^−1) in a Retsch vibratory mill. After cell maceration, the glass beads were centrifuged off (2 min, 13000 rpm). Before and after maceration, the culture was put on ice, to minimize protein denaturation through heating of the sample in the vibratory mill. This maceration protocol is optimized for the use of samples frozen at −20° C.
(§6) Summary of kinetic constants of FDH at pH 6, 7 and 8.

[7] = substrate: NC(=O)c1ccc[n+]([C@@H]2O[C@H](COP(=O)([O-])OP(=O)(O)OC[C@H]3O[C@@H](n4cnc5c(N)ncnc54)[C@H](OP(=O)(O)O)[C@@H]3O)[C@@H](O)[C@H]2O)c1; test: as above; type: biochemical, Mycobacterium vaccae N10; conditions: 37.0 °C
Description: as §1, §2, §3, §4, §5, §6

[8] = substrate: NC(=O)c1ccc[n+]([C@@H]2O[C@H](COP(=O)([O-])OP(=O)(O)OC[C@H]3O[C@@H](n4cnc5c(N)ncnc54)[C@H](O)[C@@H]3O)[C@@H](O)[C@H]2O)c1; test: as above; type: biochemical, Mycobacterium vaccae N10; conditions: 37.0 °C
Description: as §1, §2, §3, §4, §5, §6

[9] = Preparative biotransformation of 7-keto-LCA by 7β-HSDH with ADH regeneration, HPLC; type: biochemical, Collinsella aerofaciens DSM 3979; conditions: isolated enzyme with ADH and 2-propanol for NADPH regeneration, 24° C., 24 hours
[10] = Photometric activity of 7β-HSDH variants with NADPH or NADH (production example 7); type: biochemical, Collinsella aerofaciens
[11] = type: biochemical, Collinsella aerofaciens; conditions: 100 μM NADPH
[12] = other: pH 6, substrate sodium formate, pH 6.0
[13] = other: pH 7, substrate sodium formate, pH 7.0
[14] = other: pH 8, substrate sodium formate, pH 8.0

## NC(=O)c1ccc[n+]([C@@H]2O[C@H](COP(=O)([O-])OP(=O)(O)OC[C@H]3O[C@@H](n4cnc5c(N)ncnc54)[C@H](O)[C@@H]3O)[C@@H](O)[C@H]2O)c1 [NAD^+]
[1]
  kcat: Traces
[2]
  kcat: Traces

## NC(=O)C1=CN([C@@H]2O[C@H](COP(=O)(O)OP(=O)(O)OC[C@H]3O[C@@H](n4cnc5c(N)ncnc54)[C@H](O)[C@@H]3O)[C@@H](O)[C@H]2O)C=CC1 [NADH]
[1]
  kcat: Traces
[2]
  kcat: Traces

## C[C@H](CCC(=O)O)[C@H]1CC[C@H]2[C@@H]3C(=O)C[C@@H]4CC(=O)CC[C@]4(C)[C@H]3CC(=O)[C@]12C [DHCA, Dehydrocholic acid]
[3]
  Vmax: 14.6 ± 1.0 U/mg
[3]; listed as DCS
  Vmax: 14.6 ± 1.0 U/mg
[3]; listed as dehydrocholic acid
  Vmax: 14.6±1.0 U/mg
7β-HSDH
  activity of 7β-HSDH against the test substance: 119 U/ml
[4]; listed as DCS
  Vmax: 20.7 ± 1.0 U/mg
[4]; listed as dehydrocholic acid
  Vmax: 20.1±1.0 U/mg
[1]
  Vmax: 28.33 U/mg protein
  kcat: 875.35 1 μmol/(μmol × min)
[5]; listed as DCS
  Vmax: 21.0 ± 1.1 U/mg
[5]; listed as dehydrocholic acid
  Vmax: 21.0±1.1 U/mg

B1: Mycobacterium vaccae formate dehydrogenase (FDH) mutant D221G (= D222G of SEQ ID NO:36; SEQ ID NO: 15, 19, 35) (Mycolicibacterium vaccae; D222G) (protein)
chain: MAKVLCVLYDDPVDGYPKTYARDDLPKIDHYPGGQILPTPKAIDFTPGQLLGSVSGELGLREYLESNGHTLVVTSDKDGPDSVFERELVDADVVISQPFWPAYLTPERIAKAKNLKLALTAGIGSDHVDLQSAIDRNVTVAEVTYCNSISVAEHVVMMILSLVRNYLPSHEWARKGGWNIADCVSHAYDLEAMHVGTVAAGRIGLAVLRRLAPFDVHLHYTGRHRLPESVEKELNLTWHATREDMYPVCDVVTLNCPLHPETEHMINDETLKLFKRGAYIVNTARGKLCDRDAVARALESGRLAGYAGDVWFPQPAPKDHPWRTMPYNGMTPHISGTTLTAQARYAAGTREILECFFEGRPIRDEYLIVQGGALAGTGAHSYSKGNATGGSEEAAKFKKAAENSSSVDKLAAALEHHHHHH
notes: single-base deletion at the 3' end gives C-terminal read-through His-tag (last Val to Ala)
[6]; other: pH 6, cofactor NAD^+, pH 6.0
  Km: 46860 µM
[6]; other: pH 7, cofactor NAD^+, pH 7.0
  Km: 45560 µM
[6]; other: pH 8, cofactor NAD^+, pH 8.0
  Km: 59260 µM
[7]; [12]
  Km: 300 µM
[7]; [13]
  Km: 510 µM
[7]; [14]
  Km: 1010 µM
[8]; [12]
  Km: 830 µM
[8]; [13]
  Km: 610 µM
[8]; [14]
  Km: 520 µM

B2: 7β-HSDH WT: 7β-hydroxysteroid dehydrogenase from Collinsella aerofaciens ATCC 25986 (DSM 3979), SEQ ID NO:2, NADPH-dependent (protein, listed as Collinsella aerofaciens)
chain: MNLREKYGEWGLILGATEGVGKAFCEKIAAGGMNVVMVGRREEKLNVLAGEIRETYGVETKVVRADFSQPGAAETVFAATEGLDMGFMSYVACLHSFGKIQDTPWEKHEAMINVNVVTFLKCFHHYMRIFAAQDRGAVINVSSMTGISSSPWNGQYGAGKAFILKMTEAVACECEGTGVDVEVITLGTTLTPSLLSNLPGGPQGEAVMKIALTPEECVDEAFEKLGKELSVIAGQRNKDSVHDWKANHTEDEYIRYMGSFYRD
[9]
  conversion of 7-keto-LCA to UDCA: 90%
[10]; cofactor NADH
  Specific activity NADH: 0 U/mg
  Volumetric activity NADH: 0 U/ml
[10]; cofactor NADPH
  Specific activity NADPH: 5.6 U/mg
  Volumetric activity NADPH: 134 U/ml
[11]
  maximum attainable enzyme activities (specific enzyme activities at the maxima of the kinetic curves): ~13 U/mg
[11]; 10 mM dehydrocholic acid
  enzyme activity at substrate concentration of 10 mM dehydrocholic acid: ~6.7 U/mg
23° C., 1500 min
  residual activity: 20%
After 400 min
  activity at 30° C. lower than at 23° C.: about 30%
−20° C., potassium phosphate buffer 50 mM pH 8, some months, repeated freezing and thawing
  activity loss during storage: No significant activity loss

Reference: patent publication US11981935B2, “7β-hydroxysteroid dehydrogenase mutants and process for the preparation of ursodeoxycholic acid” (PharmaZell GmbH, priority 2010, dated 2024)
